Test results taken from PMC5612953, “Stable MOB1 interaction with Hippo/MST is not essential for development and tissue growth control” (Nature Communications, 2017).

T1: unphosphorylated full-length MOB1A(K104E/K105E), recombinant (human, UniProt Q9H8S9 1-216, K104E | K105E)
T1 sequence: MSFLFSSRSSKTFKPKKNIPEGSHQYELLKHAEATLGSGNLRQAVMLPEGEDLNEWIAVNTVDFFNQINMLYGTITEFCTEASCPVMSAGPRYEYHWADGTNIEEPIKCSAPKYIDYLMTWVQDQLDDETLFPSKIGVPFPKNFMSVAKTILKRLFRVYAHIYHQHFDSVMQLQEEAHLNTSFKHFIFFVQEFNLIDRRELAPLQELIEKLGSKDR

T2: phospho-MOB1(K104E/K105E), full length, recombinant (human, UniProt Q9H8S9 1-216, K104E | K105E, phosphorylated in vitro by MST2 (residues 2-308); the paper names Thr12 and Thr35 as the MST1/2 phosphorylation sites of MOB1)
T2 sequence: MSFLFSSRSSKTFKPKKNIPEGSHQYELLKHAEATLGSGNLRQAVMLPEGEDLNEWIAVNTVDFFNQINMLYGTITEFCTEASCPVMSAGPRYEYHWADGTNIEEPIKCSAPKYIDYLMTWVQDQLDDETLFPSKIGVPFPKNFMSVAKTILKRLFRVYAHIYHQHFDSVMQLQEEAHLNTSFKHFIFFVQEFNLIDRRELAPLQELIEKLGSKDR

T3: unphosphorylated full-length MOB1A(K104E/K105E), recombinant (human, UniProt Q9H8S9 1-216, K104E | K105E)
T3 construct: human MOB1A, full length; also called Unphosphorylated MOB1(K104E/K105E); MOB1(K104E/K104E); source: E. coli, purified as MOB1A (33-216) (Ni-NTA)
T3 sequence (looked up): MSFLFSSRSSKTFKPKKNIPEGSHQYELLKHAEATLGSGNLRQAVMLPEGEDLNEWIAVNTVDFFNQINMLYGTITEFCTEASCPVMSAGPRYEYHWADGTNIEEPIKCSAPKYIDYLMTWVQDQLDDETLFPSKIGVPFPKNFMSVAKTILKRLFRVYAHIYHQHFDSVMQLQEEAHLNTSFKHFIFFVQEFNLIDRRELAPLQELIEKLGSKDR

T4: phospho-MOB1(K104E/K105E), full length, recombinant (human, UniProt Q9H8S9 1-216, K104E | K105E, phosphorylated in vitro by MST2 (residues 2-308); the paper names Thr12 and Thr35 as the MST1/2 phosphorylation sites of MOB1)
T4 construct: human MOB1A, full length; source: E. coli, purified (Ni-NTA), then phosphorylated in vitro by MST2 (2-308)
T4 sequence (looked up): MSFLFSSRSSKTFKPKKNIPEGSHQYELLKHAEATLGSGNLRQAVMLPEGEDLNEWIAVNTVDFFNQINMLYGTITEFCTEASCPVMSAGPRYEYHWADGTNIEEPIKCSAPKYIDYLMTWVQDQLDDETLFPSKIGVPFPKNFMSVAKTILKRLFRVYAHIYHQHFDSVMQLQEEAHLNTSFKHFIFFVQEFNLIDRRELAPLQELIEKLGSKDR

T5: non-phosphorylated full-length MOB1A wild-type (human, UniProt Q9H8S9 1-216)
T5 construct: human MOB1A, full length; pET28a vector; also called unphosphorylated full-length MOB1; non-phosphorylated MOB1; source: E. coli, purified as MOB1A (33-216) (Ni-NTA)
T5 sequence (looked up): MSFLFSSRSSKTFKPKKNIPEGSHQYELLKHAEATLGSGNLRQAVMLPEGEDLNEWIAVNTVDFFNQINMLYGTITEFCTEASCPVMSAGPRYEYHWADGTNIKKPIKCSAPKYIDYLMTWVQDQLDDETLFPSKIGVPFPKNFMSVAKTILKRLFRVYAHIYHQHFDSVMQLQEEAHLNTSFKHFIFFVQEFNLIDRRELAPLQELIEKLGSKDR

T6: human NDR2 (residues 25-88), N-terminal regulatory domain (NTR) (human, UniProt Q9Y2H1 25-88)
T6 chain: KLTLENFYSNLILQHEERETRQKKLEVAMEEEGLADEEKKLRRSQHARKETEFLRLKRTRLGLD

T7: human LATS1 (residues 640-703), NTR (human, UniProt O95835 640-703)
T7 chain: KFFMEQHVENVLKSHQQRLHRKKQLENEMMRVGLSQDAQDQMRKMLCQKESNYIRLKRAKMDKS

T8: LATS1 (640-703, V647Y) (human, UniProt O95835 640-703, V647Y)
T8 sequence: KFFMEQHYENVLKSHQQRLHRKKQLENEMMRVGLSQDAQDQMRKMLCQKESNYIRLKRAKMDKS

T9: human NDR1 (residues 24-87), NTR (human, UniProt Q15208 24-87)
T9 chain: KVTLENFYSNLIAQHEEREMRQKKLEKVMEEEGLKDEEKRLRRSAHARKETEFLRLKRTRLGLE

T10: LATS2 (603-666, V610Y) (human, UniProt Q9NRM7 603-666, V610Y)
T10 sequence: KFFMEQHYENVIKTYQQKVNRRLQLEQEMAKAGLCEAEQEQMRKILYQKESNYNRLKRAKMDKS

T11: human LATS2 (residues 603-666), NTR (human, UniProt Q9NRM7 603-666)
T11 chain: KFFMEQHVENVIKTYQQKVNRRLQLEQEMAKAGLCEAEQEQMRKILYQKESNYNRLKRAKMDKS

T12: human NDR2 (residues 25-88), N-terminal regulatory domain (NTR) (human, UniProt Q9Y2H1 25-88)
T12 construct: human NDR2, residues 25-88 (NTR); also called NDR2 (25-88); NTR of NDR2; source: E. coli BL21(DE3), purified (Ni-NTA)
T12 sequence (looked up): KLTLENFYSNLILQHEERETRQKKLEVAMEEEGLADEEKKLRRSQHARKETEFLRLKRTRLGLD

B1: LATS1 (640-703, V647Y) (domain or fragment, human, UniProt O95835 640-703, looked up)
chain: KFFMEQHYENVLKSHQQRLHRKKQLENEMMRVGLSQDAQDQMRKMLCQKESNYIRLKRAKMDKS
notes: human LATS1, residues 640-703 (NTR); also called LATS1(V647Y); source: E. coli BL21(DE3), purified (Ni-NTA)
B2: LATS2 (603-666, V610Y) (domain or fragment, human, UniProt Q9NRM7 603-666, looked up)
chain: KFFMEQHYENVIKTYQQKVNRRLQLEQEMAKAGLCEAEQEQMRKILYQKESNYNRLKRAKMDKS
notes: human LATS2, residues 603-666 (NTR), codon-optimized synthetic gene; also called LATS2(V610Y); source: E. coli BL21(DE3), purified (Ni-NTA)
B3: human NDR1 (residues 24-87), NTR (domain or fragment, UniProt Q15208 24-87, looked up)
chain: KVTLENFYSNLIAQHEEREMRQKKLEKVMEEEGLKDEEKRLRRSAHARKETEFLRLKRTRLGLE
notes: human NDR1, residues 24-87 (NTR); also called NTR of NDR1; source: E. coli BL21(DE3), purified (Ni-NTA)
B4: NDR1 (24-87, Y31V) (domain or fragment)
chain: KVTLENFVSNLIAQHEEREMRQKKLEKVMEEEGLKDEEKRLRRSAHARKETEFLRLKRTRLGLE
B5: NDR2 (25-88, Y32V) (domain or fragment)
chain: KLTLENFVSNLILQHEERETRQKKLEVAMEEEGLADEEKKLRRSQHARKETEFLRLKRTRLGLD

Assays:
[1] = target: T1, unphosphorylated full-length …; experiment: ITC
[2] = target: T2, phospho-MOB1(K104E/K105E), full length, …; experiment: ITC; phosphorylated MOB1
[3] = target: T3, unphosphorylated full-length …; experiment: ITC; 25 °C, ITC200; 25 mM HEPES pH 7.5, 200 mM NaCl, 1 mM EDTA; ~240 μM MOB1A injected (20 x 2 μl) into ~24 μM NDR1, NDR2, LATS1 or LATS2 fragment in the cell; single-site model; settings: both partners purified
[4] = target: T4, phospho-MOB1(K104E/K105E), full length, …; experiment: as above; settings: both partners purified
[5] = target: T5, non-phosphorylated full-length MOB1A …; experiment: as above; settings: both partners purified
[6] = target: T6, human NDR2 (residues 25-88), N-terminal …; experiment: ITC
[7] = target: T7, human LATS1 (residues 640-703), NTR; experiment: ITC; MOB1 phosphorylated by MST2
NDR2 (25-88, Y32V) = target: B5; experiment: ITC; MOB1 phosphorylated by MST2
LATS1 (640-703, V647Y) [8] = target: T8, LATS1 (640-703, V647Y); experiment: ITC; MOB1 phosphorylated by MST2
NDR1 (24-87, Y31V) [9] = target: B4; experiment: ITC; MOB1 phosphorylated by MST2
[10] = target: T9, human NDR1 (residues 24-87), NTR; experiment: ITC; MOB1 phosphorylated by MST2
LATS2 (603-666, V610Y) [11] = target: T10, LATS2 (603-666, V610Y); experiment: ITC; MOB1 phosphorylated by MST2
[12] = target: T11, human LATS2 (residues 603-666), NTR; experiment: ITC; MOB1 phosphorylated by MST2
NDR1 (24-87, Y31V) [13] = target: B4; experiment: ITC; 25 °C, ITC200; 25 mM HEPES pH 7.5, 200 mM NaCl, 1 mM EDTA; ~240 μM MOB1A injected (20 x 2 μl) into ~24 μM NDR1, NDR2, LATS1 or LATS2 fragment in the cell; single-site model
LATS1 (640-703, V647Y) [14] = target: B1; experiment: as above; settings: both partners purified
LATS2 (603-666, V610Y) [15] = target: B2; experiment: as above; settings: both partners purified
[16] = target: T12, human NDR2 (residues 25-88), N-terminal …; experiment: as above; settings: both partners purified
[17] = target: B3; experiment: as above; settings: both partners purified
LATS1 (640-703, V647Y) [18] = target: T8, LATS1 (640-703, V647Y); experiment: ITC
[19] = target: T9, human NDR1 (residues 24-87), NTR; experiment: ITC
LATS2 (603-666, V610Y) [20] = target: T10, LATS2 (603-666, V610Y); experiment: ITC

| Kd [1] | Kd [2] | binding result [3] | binding result [4] | binding result [5] | Binder | also measured |
| --- | --- | --- | --- | --- | --- | --- |
| 14.1 µM | 3.83 µM | binds | binds | binds | B1 |  |
| 12.2 µM | 1.3 µM | binds | binds | binds | B2 |  |
|  | 16.2 µM |  | binds |  | human LATS1 (residues 640-703), NTR (domain or fragment, UniProt O95835 640-703, looked up, human LATS1, residues 640-703 (NTR); also called LATS1 (640-703); LATS1 wild-type; source: E. coli BL21(DE3), purified (Ni-NTA)) KFFMEQHVENVLKSHQQRLHRKKQLENEMMRVGLSQDAQDQMRKMLCQKESNYIRLKRAKMDKS |  |
|  | 8.4 µM |  | binds |  | human LATS2 (residues 603-666), NTR (domain or fragment, UniProt Q9NRM7 603-666, looked up, human LATS2, residues 603-666 (NTR), codon-optimized synthetic gene; also called NTR of LATS2; source: E. coli BL21(DE3), purified (Ni-NTA)) KFFMEQHVENVIKTYQQKVNRRLQLEQEMAKAGLCEAEQEQMRKILYQKESNYNRLKRAKMDKS |  |
| 7.94 µM | 0.124 µM | binds | binds | binds | B3 |  |
|  | 2.34 µM |  |  |  | B4 |  |
|  |  |  |  |  | MST2-phosphorylated full-length MOB1A (phospho-MOB1) (natural protein, human, UniProt Q9H8S9 1-216, looked up, phosphorylated in vitro by MST2 (residues 2-308); the paper names Thr12 and Thr35 as the MST1/2 phosphorylation sites of MOB1, human MOB1A, full length; the methods describe the phosphorylation reaction for MOB1A (33-216); results and legend call phospho-MOB1 full length; also called MST1/2-phosphorylated full-length MOB1; source: E. coli, purified (Ni-NTA), then phosphorylated in vitro by MST2 (2-308)) MSFLFSSRSSKTFKPKKNIPEGSHQYELLKHAEATLGSGNLRQAVMLPEGEDLNEWIAVNTVDFFNQINMLYGTITEFCTEASCPVMSAGPRYEYHWADGTNIKKPIKCSAPKYIDYLMTWVQDQLDDETLFPSKIGVPFPKNFMSVAKTILKRLFRVYAHIYHQHFDSVMQLQEEAHLNTSFKHFIFFVQEFNLIDRRELAPLQELIEKLGSKDR | Kd [6]: 0.578 µM; Kd [7]: 19.6 µM; Kd (NDR2 (25-88, Y32V)): 9.9 µM; Kd (LATS1 (640-703, V647Y) [8]): 4.42 µM; Kd (NDR1 (24-87, Y31V) [9]): 2.82 µM; Kd [10]: 0.136 µM; Kd (LATS2 (603-666, V610Y) [11]): 1.54 µM; Kd [12]: 8.93 µM; fold decrease in affinity against wild-type NDR1 (NDR1 (24-87, Y31V) [13]): 20 fold; fold increase in affinity against wild-type LATS1 (LATS1 (640-703, V647Y) [14]): 5 fold; fold increase in affinity against wild-type LATS2 (LATS2 (603-666, V610Y) [15]): 5 fold; fold increase in affinity against LATS1 or LATS2 [16]: ≥ 15 fold; fold increase in affinity against LATS1 or LATS2 [17]: ≥ 15 fold |
|  |  |  |  |  | non-phosphorylated full-length MOB1A wild-type (natural protein) MSFLFSSRSSKTFKPKKNIPEGSHQYELLKHAEATLGSGNLRQAVMLPEGEDLNEWIAVNTVDFFNQINMLYGTITEFCTEASCPVMSAGPRYEYHWADGTNIKKPIKCSAPKYIDYLMTWVQDQLDDETLFPSKIGVPFPKNFMSVAKTILKRLFRVYAHIYHQHFDSVMQLQEEAHLNTSFKHFIFFVQEFNLIDRRELAPLQELIEKLGSKDR | Kd (LATS1 (640-703, V647Y) [18]): 16.9 µM; Kd [6]: 12.3 µM; Kd [19]: 8.06 µM; Kd (LATS2 (603-666, V610Y) [20]): 11.5 µM |
|  | 8.7 µM |  |  |  | B5 |  |
